# B1: LN22R8: mouse anti-human CD147 monoclonal antibody, Mouse IgG3; light chain variable region SEQ ID NO: 8, heavy chain variable region SEQ ID NO: 10 (antibody, listed as Mus musculus, V domains shown)
# VH: QIQLVQSGPELKKPGETVKISCKASGYTFTNYGMNWVKQAPGKGLKWMGWINTYTGEPTYADDFKGRFAFSLETSASTAYLQINNLKNEDTATYFCARGGYGNYGAGAMDYWGQGTSVTVSS
# VL: DIQMTQSPSSLSASLGERVSLTCRASLEISGFLSWLQQKPDGTIKRLIYAASILDSGVPKRFSGSRSGSDYSLTISSLESEDFADYYCLQYASYPWTFGGGTKLEIKR
# Tests used:
# [1] = tested on: human peripheral blood mononuclear cells; assay: Cytokine release assay using human peripheral blood; assay type: cell-based; conditions: 6 donors
# Description: In some antibodies such as OKT3 and TGN1412, administration of the therapeutic antibodies causes an increase in cytokines in the blood by activating immune cells, thereby causing serious cytokine release syndrome (Gaston, R., Kidney International, 1991, 141-148; Suntharalingam, G., et al., N. Engl. J. Med. 2006, 1018-1028). It has been reported that some CD147 antibodies act on immune cells, having an action of increasing production of interferon gamma or interleukin-4 (Hu, J., et al., J. Cell. Mol. Med., 2010, 2132-2143). The toxicity of antibody drugs due to cytokine release syndrome can be predicted by a cytokine release assay using peripheral blood (Vessillier, S. et al., J. Immunolol. Methods, 2015, 43-52).
# [2] = tested on: human liver cell line HepG2; assay: HepG2 liver cancer model in NOD-scid mice; assay type: in vivo; conditions: qD1x9 po, n=5; for Average tumor volume: NOD-scid mice
# Method: 5×10^6 cells of the human liver cell line HepG2 were suspended in PBS containing 50% Matrigel (Corning Inc., Cat. 354234), and the suspension was inoculated subcutaneously into the axilla of 4 week-old female NOD-scid mice (NOD. CB17-Prkdc/J, purchased from CHARLES RIVER LABORATORIES JAPAN, INC). […] As a control drug, sorafenib (Nexavar tablets 200 mg, Bayer AG), which is a therapeutic agent for liver cancer, was dissolved in a PEG-35 castor oil (Cremophor EL, NACALAI TESQUE, INC., Cat. 09727-14) ethanol solvent according to the reference (Chang et. al., Cancer Chem. Thera. Pharm., 2007) attached to Nexavar tablets, and the solution was orally administered to cancer-bearing mice at 30 mg/kg or 90 mg/kg 9, 10, 11, 12, 13, 16, 17, and 18 days after the inoculation (n=5). The major axis and the minor axis of the inoculated tumor were measured twice a week using an electronic digital caliper (available from MITUTOYO CORPORATION) to calculate the tumor volume by the following formula. Tumor volume (mm^3)=½×minor axis (mm)×minor axis (mm)×major axis (mm)
# [3] = tested on: human pancreatic line PANC-1; assay: Antibody screening by in-vivo antitumor efficacy, PANC-1 xenograft in NOD-scid mice
# Method: 1×10^7 cells of human pancreatic line PANC-1 were suspended in PBS, and the suspension was inoculated subcutaneously into the axilla of NOD-scid mice (CHARLES RIVER LABORATORIES JAPAN, INC., NOD. CB17-Prkdc/J). […] The major axis and the minor axis of the inoculated tumor were measured twice a week using an electronic digital caliper (available from MITUTOYO CORPORATION) to calculate the tumor volume by the following formula. Tumor volume (mm^3)=½×minor axis (mm)×minor axis (mm)×major axis (mm)
# [4] = tested on: human pancreatic line MIA PaCa-2; assay: ADCC activity, 51Cr release, human PBMC effector cells; assay type: cell-based; conditions: antibody 0.5 or 5 μg/ml; MIA PaCa-2 target cells
# Method: Antibody-dependent cellular cytotoxicity (ADCC) activity can be measured by a ^51Cr release assay method, which measures cell death caused when immune cells having effector activity, an antibody and ^51Cr-labeled target cells are brought into contact. The ADCC activity of the anti-human CD147 antibody of the present invention is measured as follows. Regarding the ADCC activity of the anti-human CD147 antibody, human peripheral blood mononuclear cells (PBMC) are used as effector cells, and a CD147-positive human cancer cell line (for example, pancreatic cancer cell line MIA PaCa-2) is used as ADCC target cells. Cancer cells labeled with a radioisotope, ^51Cr, and the antibody to be evaluated are treated at a concentration of 0.5 or 5 μg/ml at 4° C. for 30 minutes, PBMC separated from human peripheral blood is added at 20 times the proportion of cancer cells, and then cells are cultured for 4 hours at 37° C. in the presence of 5% CO2. […] The measured value of ^51Cr released from ^51Cr-labeled cancer cells treated with Triton-100 is designated as a “Maximum release value” and the measured value of ^51Cr released from ^51Cr-labeled cancer cells treated with antibody in the absence of PBMC is designated as a “Spontaneous release value”. With these values, % Specific release is calculated from the following formula. […]
# [5] = tested on: human pancreatic line MIA PaCa-2; assay: CDC activity with rabbit complement, CellTiter-Glo; assay type: cell-based; conditions: antibody 10 μg/ml; rabbit complement 7.5%; 3 hours
# Method: Complement-dependent cytotoxicity (CDC) activity can be evaluated by measuring cell death caused when complement contained in blood, an antibody and target cells are brought into contact. The CDC activity of the anti-human CD147 antibody of the present invention is measured as follows. The complement-dependent cytotoxicity activity (CDC activity) of the anti-human CD147 antibody is evaluated using human pancreatic cell line MIA PaCa-2 as target cells. Commercially available rabbit complement (Low Tox-M Rabbit Complement, […] LABORATORIES LIMITED, Cat. CL3051) is used as the complement. […] Target cells are treated with the antibody to be evaluated and the negative control antibody at concentrations of 0, 0.1, 1 or 10 μg/ml for 1 hour at 4° C., the rabbit complement is added in such a manner that the final concentration is 7.5%, the resultant mixture is heated at 37° C. in the presence of 5% CO2 for 3 hours, and then intracellular ATP contained in living cells is measured using the CellTiter-Glo Lumimescent Cell Viability Assay (Promega, Cat. G7572). Luminescent signals obtained using the CellTiter-Glo Lumimescent Cell Viability Assay are quantitatively determined using an EnVision 2104 Multilabel Reader (Perkin Elmer). The measurement is performed three times and the average value and the standard deviation are calculated. […]
# [6] = tested on: human pancreatic line BxPC-3; assay: SMAD4-negative BxPC-3 pancreatic cancer-bearing model in BALB/c-nu mice; assay type: in vivo; conditions: antibody 10 mg/kg ip 8, 15 and 22 days after the inoculation; BALB/c-nu mice
# Description: The transcription factor, SMAD4, is known as one of the molecules important for activation of SMAD signaling (Zang, et al., Current Biology, 270-276, 1997). It is known that SMAD signaling is partially impaired due to genetic defects of SMAD4 in some pancreatic cancers (Hahn, et al., Science, 350-353, 1996). […] 2.5×10^6 cells of human pancreatic line BxPC-3 (ATCC, Cat. CRL-1687) were suspended in PBS containing […] (Corning Inc., Cat. 354234), and the suspension was inoculated subcutaneously into the axilla of 6 week-old female BALB/c-nu mouse (CAnN. Cg-Foxn1nu/CrlCrlj, purchased from CHARLES RIVER LABORATORIES JAPAN, INC). […] As a control drug, gemcitabine (Eli Lilly Japan K.K., Gemzar®) that is a therapeutic agent for pancreatic cancer was administered to mice bearing tumor via the tail vein at 200 mg/kg 8, 15, 22 days after the inoculation (n=5). The major axis and the minor axis of the inoculated tumor were measured twice a week using an electronic digital caliper (available from MITUTOYO CORPORATION) to calculate the tumor volume by the following formula. Tumor volume (mm^3)=½×minor axis (mm)×minor axis (mm)×major axis (mm)
molecule,measurement,setting,value
anti-human CD3 antibody (OKT3): comparative antibody in the cytokine release assay (BioLegend Cat. No317326) [reference compound],acceleration of cell growth in human peripheral blood mononuclear cells,[1],acceleration of cell growth
same,"cytokine release (TNFα, INF-γ, IL-2, IL-6, IL-8, IL-10, MIP-1α)",[1]; human peripheral blood,acceleration of cytokine release
"CNC(=O)c1cc(Oc2ccc(NC(=O)Nc3ccc(Cl)c(C(F)(F)F)c3)cc2)ccn1 [Sorafenib, sorafenib, reference compound]",Number of examples of complete tumor regression,[2]; 30 mg/kg,0/5
same,tumor growth inhibition rate,[2]; 30 mg/kg,18%
same,Average tumor volume,[2]; 30 mg/kg,1425 mm^3
same,Number of examples of complete tumor regression,[2]; 90 mg/kg,0/5
same,tumor growth inhibition rate,[2]; 90 mg/kg,28%
same,Average tumor volume,[2]; 90 mg/kg,1252 mm^3
B1,tumor growth inhibition rate,"[3]; 10 mg/kg ip administration group, 48th day after the inoculation (final measurement date), NOD-scid mice",50%
same,in vivo anti-tumor effect,"[3]; antitumor efficacy of Example 1)-7 (PANC-1 xenograft, 10 mg/kg) as listed in Table 3",50%
same,ADCC activity (in words),[4],no ADCC activity
same,"living cells (CDC activity, luminescence of non-treated cells = 100%)",[5],41.1%
same,sensitivity of BxPC-3 tumor (in words),[6],resistant
